B1: COX4I1 (parent)
chain: FDKEWVAKQTKRMLDMKVNPIQGL

Variants of: B1
Test: protein stability index of a GFP-peptide fusion (GPS, HEK-293T) (PSI 1-6); higher = more stable
Conditions: c terminus: a fixed tail appended
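Note: lentivirally expressed fusions sorted by FACS into six bins by GFP to DsRed ratio, PSI derived from sequencing read proportions per bin multiplied by bin number.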

In order of rising protein stability index:
1. L24K  1.03
2. K8A  1.06
3. T10S  1.08
4. D2L  1.09
5. A7S  1.11
6. M13A  1.13
7. K8Q  1.18
8. V18K  1.19
9. L14Q  1.23
10. T10L  1.24
11. N19L  1.26
12. E4M  1.26
13. A7C  1.27
14. D2R  1.27
15. K3W  1.29
16. Q22C  1.29
17. I21S  1.32
18. D15V  1.33
19. V6I  1.35
20. D2T  1.35
21. R12G  1.35
22. L24T  1.35
23. G23L  1.35
24. R12N  1.36
25. L14C  1.38
26. G23P  1.39
27. G23H  1.4
28. T10A  1.41
29. L14V  1.41
30. M16H  1.42
31. M13H  1.43
32. L14E  1.43
33. E4S  1.43
34. I21F  1.46
35. P20N  1.47
36. K8T  1.48
37. G23R  1.48
38. K17G  1.51
39. D2W  1.52
40. K3H  1.52
41. K11W  1.52
42. M16E  1.52
43. V6C  1.53
44. V18D  1.53
45. E4Q  1.53
46. Q9F  1.54
47. K11N  1.54
48. R12T  1.54
49. P20Q  1.54
50. I21A  1.54
51. D2G  1.55
52. P20S  1.55
53. A7L  1.56
54. L14N  1.56
55. K17M  1.58
56. D15N  1.58
57. M13D  1.59
58. P20E  1.59
59. G23V  1.59
60. V6Y  1.6
61. Q9I  1.6
62. R12M  1.6
63. T10Y  1.6
64. K11L  1.61
65. P20A  1.61
66. K11G  1.62
67. D15A  1.62
68. E4C  1.62
69. M16F  1.62
70. M13Y  1.63
71. P20D  1.63
72. P20L  1.63
73. E4F  1.63
74. Q22G  1.63
75. K3M  1.64
76. M13G  1.64
77. D15L  1.64
78. N19Q  1.64
79. L14H  1.65
80. L14P  1.65
81. V18I  1.65
82. M16C  1.65
83. K3R  1.66
84. D15C  1.66
85. M16N  1.67
86. A7I  1.68
87. P20R  1.68
88. Q22W  1.68
89. T10H  1.69
90. K11H  1.7
91. T10C  1.7
92. N19H  1.7
93. A7Y  1.71
94. K17E  1.71
95. F1Y  1.71
96. P20F  1.71
97. N19R  1.71
98. Q22E  1.71
99. M16V  1.71
100. L24F  1.72
101. V18L  1.72
102. L24W  1.73
103. T10N  1.73
104. P20V  1.73
105. P20C  1.73
106. A7H  1.74
107. L24M  1.74
108. I21Y  1.75
109. I21G  1.75
110. M16Y  1.75
111. A7T  1.76
112. D2Y  1.76
113. D15I  1.76
114. N19I  1.76
115. G23M  1.76
116. A7E  1.77
117. Q9H  1.77
118. N19F  1.77
119. G23T  1.77
120. Q22N  1.77
121. T10K  1.78
122. P20H  1.78
123. I21Q  1.78
124. V6N  1.79
125. K11Q  1.79
126. L14T  1.79
127. N19D  1.79
128. M16T  1.79
129. G23N  1.8
130. A7M  1.81
131. R12K  1.81
132. M13T  1.82
133. T10F  1.82
134. T10W  1.82
135. T10D  1.82
136. E4K  1.82
137. K17T  1.83
138. L24A  1.83
139. I21T  1.83
140. A7Q  1.84
141. K11A  1.84
142. L24D  1.84
143. T10Q  1.84
144. D15T  1.84
145. D15P  1.84
146. D15F  1.84
147. K8V  1.84
148. E4R  1.84
149. V6P  1.86
150. K11E  1.86
151. V18M  1.86
152. Q9R  1.87
153. K3F  1.87
154. K8G  1.87
155. K17N  1.88
156. R12A  1.88
157. D15H  1.88
158. K8M  1.88
159. V18C  1.88
160. G23W  1.88
161. E4L  1.88
162. M16S  1.88
163. D2E  1.89
164. D15K  1.89
165. E4Y  1.89
166. Q22R  1.89
167. N19E  1.9
168. G23D  1.9
169. E4D  1.9
170. K3G  1.91
171. L24V  1.91
172. K11R  1.92
173. K11T  1.92
174. N19K  1.92
175. G23Y  1.92
176. Q22K  1.92
177. V6M  1.93
178. V6T  1.93
179. D2M  1.93
180. I21D  1.93
181. V18H  1.94
182. N19G  1.94
183. V18E  1.95
184. V6S  1.96
185. K17A  1.96
186. R12I  1.96
187. K11F  1.97
188. R12H  1.97
189. N19M  1.97
190. N19S  1.97
191. M16D  1.97
192. V18W  1.99
193. T10P  2
194. M16L  2
195. M16W  2.02
196. K17V  2.03
197. A7P  2.05
198. P20Y  2.05
199. V6H  2.06
200. K3N  2.06
201. K3L  2.06
202. I21K  2.06
203. D15W  2.07
204. K17C  2.08
205. L24P  2.08
206. Q22L  2.08
207. L24R  2.09
208. K3T  2.1
209. L14I  2.1
210. M16I  2.1
211. K3C  2.12
212. M13F  2.12
213. L14K  2.12
214. K3Y  2.13
215. Q22Y  2.13
216. M16G  2.13
217. Q9Y  2.14
218. K17Y  2.14
219. K17F  2.16
220. K3A  2.17
221. F1W  2.17
222. M13C  2.17
223. R12F  2.17
224. P20G  2.17
225. I21W  2.17
226. K3S  2.19
227. L24C  2.19
228. V18R  2.19
229. I21H  2.19
230. Q9D  2.2
231. I21N  2.21
232. V18Q  2.22
233. N19V  2.22
234. N19C  2.23
235. Q22S  2.23
236. K17P  2.24
237. V18T  2.24
238. Q9E  2.26
239. R12V  2.27
240. A7G  2.28
241. V6K  2.28
242. K11S  2.28
243. L24N  2.28
244. A7K  2.29
245. K8D  2.29
246. K17I  2.3
247. L24I  2.3
248. V6G  2.31
249. K8L  2.31
250. A7D  2.32
251. K11P  2.32
252. N19P  2.32
253. E4T  2.34
254. M13P  2.35
255. T10R  2.35
256. L14A  2.35
257. K8E  2.35
258. E4H  2.35
259. M13L  2.36
260. D15Y  2.36
261. G23F  2.36
262. P20T  2.38
263. K17W  2.4
264. M13S  2.4
265. P20W  2.4
266. M16Q  2.4
267. L14Y  2.42
268. K8R  2.42
269. E4V  2.42
270. A7R  2.45
271. D2I  2.45
272. L24Q  2.45
273. Q9S  2.46
274. N19Y  2.55
275. D2N  2.57
276. K3D  2.57
277. Q22V  2.58
278. R12E  2.59
279. K8Y  2.59
280. Q9K  2.62
281. F1C  2.62
282. Q9G  2.65
283. D2A  2.65
284. V6W  2.67
285. T10G  2.67
286. K8C  2.68
287. Q22M  2.69
288. K11C  2.77
289. V6D  2.78
290. W5F  2.8
291. T10I  2.82
292. K3E  2.83
293. R12Q  2.84
294. W5H  2.84
295. K3Q  2.85
296. L24G  2.86
297. Q9T  2.87
298. V18Y  2.87
299. W5T  2.87
300. L14F  2.88
301. F1G  2.92
302. M13Q  2.99
303. W5L  3
304. D15M  3.02
305. R12S  3.04
306. K8W  3.04
307. L24E  3.09
308. F1H  3.13
309. R12L  3.17
310. F1E  3.19
311. W5Y  3.22
312. F1Q  3.31
313. F1S  3.34
314. K11Y  3.38
315. V6A  3.39
316. F1P  3.44
317. W5I  3.44
318. W5K  3.54
319. F1K  3.57
320. F1L  3.57
321. W5E  3.6
322. W5S  3.61
323. W5P  3.63
324. F1T  3.71
325. W5C  3.78
326. F1N  3.79
327. W5Q  3.85
328. W5N  3.86
329. W5G  3.92
330. W5A  3.96
331. W5R  3.98
332. W5V  4.17
333. W5D  4.22
334. F1D  4.38
